According to paper PMC10397247:
One block for each binder: values may come before it.

How the values were obtained:
[1] = target: T1, 4H2620-AA; test: two-hybrid library CCmax; conditions: mean of both orientations;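 also: natural log of median RNA to DNA barcode read ratio; higher means stronger binding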
T1 chain: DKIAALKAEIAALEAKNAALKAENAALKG

[2] = target: T2, 4H1874-AA; test: two-hybrid library CCmax; conditions: mean of both orientations;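 also: natural log of median RNA to DNA barcode read ratio; higher means stronger binding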
T2 chain: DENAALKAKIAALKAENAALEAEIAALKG

[3] = target: T3, 4H2611-AA; test: two-hybrid library CCmax; conditions: mean of both orientations;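 also: natural log of median RNA to DNA barcode read ratio; higher means stronger binding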
T3 chain: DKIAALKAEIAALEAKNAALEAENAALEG

[4] = target: T4, 4H3631-AA; test: two-hybrid library CCmax; conditions: mean of both orientations;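 also: natural log of median RNA to DNA barcode read ratio; higher means stronger binding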
T4 chain: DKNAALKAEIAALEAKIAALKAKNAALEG

[5] = target: T5, 4H3162-AA; test: two-hybrid library CCmax; conditions: mean of both orientations;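 also: natural log of median RNA to DNA barcode read ratio; higher means stronger binding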
T5 chain: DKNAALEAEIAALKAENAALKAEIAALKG

[6] = target: T6, 4H3697-AA; test: two-hybrid library CCmax; conditions: mean of both orientations;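 also: natural log of median RNA to DNA barcode read ratio; higher means stronger binding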
T6 chain: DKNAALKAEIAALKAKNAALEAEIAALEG

[7] = target: T7, 4H2907-AA; test: two-hybrid library CCmax; conditions: mean of both orientations
T7 chain: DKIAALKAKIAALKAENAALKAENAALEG

[8] = target: T8, 4H1388-AA; test: two-hybrid library CCmax
T8 chain: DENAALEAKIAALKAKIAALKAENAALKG

[9] = target: T9, 4H1401-AA; test: two-hybrid library CCmax; conditions: mean of both orientations
T9 chain: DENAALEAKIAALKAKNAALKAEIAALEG

[10] = target: T10, 4H3133-AA; test: two-hybrid library CCmax; conditions: mean of both orientations
T10 chain: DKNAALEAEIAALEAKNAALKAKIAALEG

[11] = target: T11, 4H3378-AA; test: two-hybrid library CCmax; conditions: mean of both orientations
T11 chain: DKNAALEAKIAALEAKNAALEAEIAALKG

[12] = target: T12, 4H1513-AA; test: two-hybrid library CCmax; conditions: mean of both orientations
T12 chain: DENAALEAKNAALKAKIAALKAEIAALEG

[13] = target: T13, 4H697-AA; test: two-hybrid library CCmax; conditions: mean of both orientations
T13 chain: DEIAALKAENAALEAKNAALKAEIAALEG

[14] = target: T14, 4H3056-AA; test: two-hybrid library CCmax; conditions: mean of both orientations
T14 chain: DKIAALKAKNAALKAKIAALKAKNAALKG

[15] = target: T15, 4H340-AA; test: two-hybrid library CCmax; conditions: mean of both orientations
T15 chain: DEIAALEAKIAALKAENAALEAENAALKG

[16] = target: T16, 4H384-AA; test: two-hybrid library CCmax; conditions: mean of both orientations
T16 chain: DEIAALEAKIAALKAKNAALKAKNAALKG

[17] = target: T17, 4H2553-AA; test: two-hybrid library CCmax; conditions: mean of both orientations
T17 chain: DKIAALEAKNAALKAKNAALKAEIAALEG

[18] = target: T18, 4H3588-AA; test: two-hybrid library CCmax; conditions: mean of both orientations
T18 chain: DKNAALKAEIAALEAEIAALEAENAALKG

[19] = target: T19, 4H2198-AA; test: two-hybrid library CCmax; conditions: mean of both orientations
T19 chain: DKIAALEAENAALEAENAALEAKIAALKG

[20] = target: T20, 4H1845-AA; test: two-hybrid library CCmax; conditions: mean of both orientations
T20 chain: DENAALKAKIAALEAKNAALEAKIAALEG

[21] = target: T21, 4H3413-AA; test: two-hybrid library CCmax; conditions: mean of both orientations
T21 chain: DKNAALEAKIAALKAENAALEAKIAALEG

[22] = target: T22, 4H2648-AA; test: two-hybrid library CCmax; conditions: mean of both orientations
T22 chain: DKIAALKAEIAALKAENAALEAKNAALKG

[23] = target: T23, 4H3865-AA; test: two-hybrid library CCmax; conditions: mean of both orientations
T23 chain: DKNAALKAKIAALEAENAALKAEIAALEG

[24] = target: T24, 4H982-AA; test: two-hybrid library CCmax; conditions: mean of both orientations
T24 chain: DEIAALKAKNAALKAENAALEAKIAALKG

[25] = target: T25, 4H32-AA; test: two-hybrid library CCmax; conditions: mean of both orientations
T25 chain: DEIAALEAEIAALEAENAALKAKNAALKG

[26] = target: T26, 4H1594-AA; test: two-hybrid library CCmax; conditions: mean of both orientations
T26 chain: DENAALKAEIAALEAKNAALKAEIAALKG

[27] = target: T27, 4H3606-AA; test: two-hybrid library CCmax; conditions: mean of both orientations
T27 chain: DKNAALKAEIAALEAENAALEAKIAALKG

[28] = target: T28, 4H1629-AA; test: two-hybrid library CCmax; conditions: mean of both orientations
T28 chain: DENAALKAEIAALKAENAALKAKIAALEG

[29] = target: T29, 4H3718-AA; test: two-hybrid library CCmax; conditions: mean of both orientations
T29 chain: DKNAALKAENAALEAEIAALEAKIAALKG

[30] = target: T30, 4H3592-bA; test: two-hybrid library CCNG1
T30 chain: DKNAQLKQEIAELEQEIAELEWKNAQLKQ

[31] = target: T31, 4H4038-bA; test: two-hybrid library CCNG1
T31 chain: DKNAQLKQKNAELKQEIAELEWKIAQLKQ

[32] = target: T32, P4A-bH; test: two-hybrid library CCNG1
T32 chain: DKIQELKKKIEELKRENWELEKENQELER

[33] = target: T33, 4H3907-bA; test: two-hybrid library CCNG1
T33 chain: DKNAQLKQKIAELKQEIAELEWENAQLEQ

[34] = target: T34, 4H3601-bA; test: two-hybrid library CCNG1
T34 chain: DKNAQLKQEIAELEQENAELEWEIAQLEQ

[35] = target: T35, P7SHb; test: two-hybrid library CCNG1
T35 chain: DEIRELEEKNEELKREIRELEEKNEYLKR

[36] = target: T36, P5SHb; test: two-hybrid library CCNG1
T36 chain: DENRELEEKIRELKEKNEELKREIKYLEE

[37] = target: T37, P8SHb; test: two-hybrid library CCNG1
T37 chain: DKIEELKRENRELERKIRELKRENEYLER

[38] = target: T38, P6SHb; test: two-hybrid library CCNG1
T38 chain: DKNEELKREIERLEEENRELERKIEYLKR

[39] = target: T39, P2SHb; test: two-hybrid library CCNG1
T39 chain: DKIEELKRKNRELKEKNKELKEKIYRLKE

[40] = target: T40, P9SHb; test: two-hybrid library CCNG1
T40 chain: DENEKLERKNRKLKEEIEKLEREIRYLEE

[41] = target: T41, P4SHb; test: two-hybrid library CCNG1
T41 chain: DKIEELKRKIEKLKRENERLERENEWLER

[42] = target: T42, P3SHb; test: two-hybrid library CCNG1
T42 chain: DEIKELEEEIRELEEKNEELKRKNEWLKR

[43] = target: T43, 4H3926-bH; test: two-hybrid library CCNG1
T43 chain: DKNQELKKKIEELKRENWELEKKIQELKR

[44] = target: T44, 4H591-bH; test: two-hybrid library CCNG1
T44 chain: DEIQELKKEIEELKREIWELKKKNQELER

[45] = target: T45, 4H1710-bH; test: two-hybrid library CCNG1
T45 chain: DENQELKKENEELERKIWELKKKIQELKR

[46] = target: T46, 4H850-bH; test: two-hybrid library CCNG1
T46 chain: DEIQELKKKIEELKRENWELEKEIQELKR

[47] = target: T47, 4H3613-bH; test: two-hybrid library CCNG1
T47 chain: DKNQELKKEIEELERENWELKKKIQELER

[48] = target: T48, 4H3782-bH; test: two-hybrid library CCNG1
T48 chain: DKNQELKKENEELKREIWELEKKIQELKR

[49] = target: T49, 4H3628-bH; test: two-hybrid library CCNG1
T49 chain: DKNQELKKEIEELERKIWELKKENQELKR

[50] = target: T50, 4H1449-bH; test: two-hybrid library CCNG1
T50 chain: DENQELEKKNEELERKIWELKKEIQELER

[51] = target: T51, 4H3175-bH; test: two-hybrid library CCNG1
T51 chain: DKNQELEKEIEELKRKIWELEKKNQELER

[52] = target: T52, 4H1373-bH; test: two-hybrid library CCNG1
T52 chain: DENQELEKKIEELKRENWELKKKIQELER

[53] = target: T53, 4H1544-bH; test: two-hybrid library CCNG1
T53 chain: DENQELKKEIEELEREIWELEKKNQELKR

[54] = target: T54, 4H3858-bH; test: two-hybrid library CCNG1
T54 chain: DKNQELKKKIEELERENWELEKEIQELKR

[55] = target: T55, 4H906-bH; test: two-hybrid library CCNG1
T55 chain: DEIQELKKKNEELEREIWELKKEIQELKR

[56] = target: T56, 4H626-bH; test: two-hybrid library CCNG1
T56 chain: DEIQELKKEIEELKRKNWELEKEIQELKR

[57] = target: T57, 4H3497-bH; test: two-hybrid library CCNG1
T57 chain: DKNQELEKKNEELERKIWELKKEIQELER

[58] = target: T58, 4H730-bA; test: two-hybrid library CCNG1
T58 chain: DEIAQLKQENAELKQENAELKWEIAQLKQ

[59] = target: T59, 4H3277-bH; test: two-hybrid library CCNG1
T59 chain: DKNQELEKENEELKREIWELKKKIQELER

[60] = target: T60, 4H3974-bH; test: two-hybrid library CCNG1
T60 chain: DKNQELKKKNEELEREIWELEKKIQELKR

[61] = target: T61, 4H3298-bH; test: two-hybrid library CCNG1
T61 chain: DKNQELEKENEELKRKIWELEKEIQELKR

[62] = target: T62, 4H3817-bH; test: two-hybrid library CCNG1
T62 chain: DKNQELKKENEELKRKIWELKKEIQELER

[63] = target: T63, 4H1985-bH; test: two-hybrid library CCNG1
T63 chain: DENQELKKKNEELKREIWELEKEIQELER

[64] = target: T64, 4H3162-bH; test: two-hybrid library CCNG1
T64 chain: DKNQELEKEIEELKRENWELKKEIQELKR

[65] = target: T65, 4H932-bN; test: two-hybrid library CCNG1
T65 chain: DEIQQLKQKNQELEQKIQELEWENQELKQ

[66] = target: T66, 4H1899-bH; test: two-hybrid library CCNG1
T66 chain: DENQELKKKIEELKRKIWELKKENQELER

[67] = target: T67, 4H570-bH; test: two-hybrid library CCNG1
T67 chain: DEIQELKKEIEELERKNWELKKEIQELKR

[68] = target: T68, O8; test: two-hybrid library CCNG1
T68 chain: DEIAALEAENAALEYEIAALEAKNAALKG

[69] = target: T69, 4H3462-bH; test: two-hybrid library CCNG1
T69 chain: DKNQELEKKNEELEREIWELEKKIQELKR

[70] = target: T70, 4H3843-bH; test: two-hybrid library CCNG1
T70 chain: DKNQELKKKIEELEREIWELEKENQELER

- interaction score [1]: -0.0212
- interaction score [2]: -1.59
- interaction score [3]: -0.829
- interaction score [4]: 0.242
- interaction score [5]: -1.45
- interaction score [6]: -1.77
- interaction score [7]: -0.775
- interaction score [8]: -0.698
- interaction score [9]: -2
- interaction score [10]: -1.57
- interaction score [11]: -1.68
- interaction score [12]: -0.0302
- interaction score [13]: -1.54
- interaction score [14]: -1.68
- interaction score [15]: -0.251
- interaction score [16]: -0.356
- interaction score [17]: -1.78
- interaction score [18]: 2.13
- interaction score [19]: -1.08
- interaction score [20]: -1.71
- interaction score [21]: -1.7
- interaction score [22]: -0.194
- interaction score [23]: -1.23
- interaction score [24]: -2.08
- interaction score [25]: 2.52
- interaction score [26]: -1.66
- interaction score [27]: 0.583
- interaction score [28]: -1.24
- interaction score [29]: -0.0337
B1: 4H1388-AA (peptide)
chain: DENAALEAKIAALKAKIAALKAENAALKG

- interaction score [30]: -0.131
- interaction score [31]: -0.458
- interaction score [32]: 1.36
- interaction score [33]: 0.467
- interaction score [34]: -0.03
B2: 4H3592-bA (peptide)
chain: DKNAQLKQEIAELEQEIAELEWKNAQLKQ

- interaction score [35]: 0.49
- interaction score [36]: 0.588
- interaction score [37]: -0.265
- interaction score [38]: 0.195
- interaction score [39]: -0.669
- interaction score [40]: -1.55
- interaction score [41]: 0.291
- interaction score [42]: -0.091
B3: P2SHb (peptide)
chain: DKIEELKRKNRELKEKNKELKEKIYRLKE

- interaction score [43]: 1.67
- interaction score [44]: -0.84
- interaction score [45]: -2.29
- interaction score [46]: -0.156
- interaction score [47]: 0.423
- interaction score [48]: -0.345
- interaction score [49]: -1.36
- interaction score [50]: -1.04
- interaction score [51]: 0.281
- interaction score [52]: 0.778
- interaction score [53]: -0.374
- interaction score [54]: 0.654
- interaction score [55]: -0.627
- interaction score [56]: -0.984
- interaction score [57]: -0.763
- interaction score [58]: -0.488
- interaction score [59]: -0.681
- interaction score [60]: 0.369
- interaction score [61]: 0.0783
- interaction score [62]: -0.502
- interaction score [63]: 0.5
- interaction score [64]: 0.645
- interaction score [65]: 0.58
- interaction score [66]: -2
- interaction score [67]: 0.082
- interaction score [68]: -0.719
- interaction score [69]: -0.048
- interaction score [70]: -0.0729
B4: 4H1373-bH (peptide)
chain: DENQELEKKIEELKRENWELKKKIQELER
